± gives the half width of the 95% confidence interval.
How the values were obtained:
[1] = folding stability dG unfold from trypsin proteolysis; higher = more stable
Method in brief: (§1)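 Bayesian fitting of sequencing counts gave K50 for each design. Unfolding free energy followed by setting this against a sequence-predicted unfolded-state K50 and a shared folded-state K50, either per protease or with trypsin and chymotrypsin combined. The designs, under 80 residues and lacking cysteine, were digested in a PA-tagged cDNA display format at 11 threefold-diluted protease concentrations and without protease, and only those with AlphaFold2 dimer inter-PAE above 15 were kept.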

[2] = folding stability dG unfold (combined trypsin and chymotrypsin); higher = more stable
Method in brief: as §1

[3] = folding stability dG unfold from chymotrypsin proteolysis; higher = more stable
Method in brief: as §1

| Sequence | folding stability dG unfold [1] | folding stability dG unfold [2] | folding stability dG unfold [3] |
| --- | --- | --- | --- |
| SAGGSAGGSAMKVALVERPDGSPFLLVFDPDRPGVALLRPLDTDEVEVLPSELLKNLKITASAGGSAGGSAG [r3_451_TrMRF] | -0.509 ± 0.17 kcal/mol | 0.344 ± 0.1 kcal/mol | 0.68 ± 0.13 kcal/mol |
| SAGGSAGGSAGGGMTVEESVFLDPSGTRITVTTRVFDDGTVVTETEVTPLPPTPNPALASAGGSAGGSAGGS [r10_878_JUSTAS] | 1.2 ± 0.035 kcal/mol | 1.11 ± 0.15 kcal/mol | 1.08 ± 0.066 kcal/mol |
| SAGGSAGGSMKITINKWDPDNGNIMVTIQMPGQPVEIMIPWNNVDKLLEKLPFPGMKIDEIYPSAGGSAGGS [r12_23_TrROS] | 1.11 ± 0.1 kcal/mol | 1.14 ± 0.23 kcal/mol | 0.718 ± 0.23 kcal/mol |
| EEWYIIQIKIEYWGPNGKEREIDIMVLIPPEQMTPDQLKQVKEIAREIAENLQENGYNIEINVEIIPLDDMS [r1_221_TrROS] | 3.07 ± 0.26 kcal/mol | > 6 kcal/mol | 3.9 ± 0.23 kcal/mol |
| SAGGSAIENQFLRITMYHGNKPHTWTFPIKKVDIDPEDGNIEVYFPPEFRELFGGPMRITDIEFPPSAGGSA [r15_710_TrROS] | 1.14 ± 0.019 kcal/mol | 1.46 ± 0.067 kcal/mol | 1.63 ± 0.071 kcal/mol |
| SAGDGDKMRGEHEREDPNGKKREVTHEMKVQPPPVPKPKIELPADDIDEIDPDNGTLRNPGNGKPFPIGSAG [r5_807_TrROS] | 0.0244 ± 0.15 kcal/mol | -0.31 ± 0.41 kcal/mol | -0.465 ± 0.17 kcal/mol |
| SSYTVDVTFTDPSPPKPTHRTLSSIEDAIAEAKAELPPGSVATITVTYPDGSTETITIVGDGVVETKKTASA [r9_482_JUSTAS] | -0.116 ± 0.056 kcal/mol | 0.561 ± 0.081 kcal/mol | 0.917 ± 0.039 kcal/mol |
| SAGMMKIKITLENGEELTIEVSPEEKEKLKEGDIVEIRLEDGTVFKAEVVEVRPPGETVKIRITEAVPSAGG [r19_274_TrROS_Hall] | 1.67 ± 0.086 kcal/mol | 2.54 ± 0.16 kcal/mol | 2.9 ± 0.035 kcal/mol |
| SAGGSAGGSAKKPVTGTIILKYPGTPEDALAKAKEIAKELESRGYSVSAEFLPNGYIKITLPSAGGSAGGSA [r18_262_TrMRF] | 1.48 ± 0.049 kcal/mol | 1.73 ± 0.098 kcal/mol | 1.78 ± 0.051 kcal/mol |
| SAGGSAGGSAGGSDYIMFRIPAPPGEKIEIPIPNGWEVEINPQPHNGRWYFMIKIPEDASAGGSAGGSAGGS [r4_360_TrROS] | 1.05 ± 0.085 kcal/mol | 1.13 ± 0.12 kcal/mol | 1.09 ± 0.11 kcal/mol |
| SAGGSAGGSPGFIIRVRTWERDPKDGKWKPKRERPLTFPPDDADDFADKLNSESPNVEVEIMPSAGGSAGGS [r12_342_TrROS] | -0.0285 ± 0.15 kcal/mol | -0.0797 ± 0.15 kcal/mol | -0.259 ± 0.25 kcal/mol |
| SEVVDTFSPPVTGSGEPRDFEIRLIKDENGNPVSVTMFDPVTGVEYPPDVSLEDLGVPPPVVEAFEAARRSS [r1_354_JUSTAS] | -0.48 ± 0.08 kcal/mol | -0.0908 ± 0.069 kcal/mol | 0.0636 ± 0.062 kcal/mol |
| SAGGSAGGSAMIEISEEELEKLLAETPEEEAKEVKIERIPDIGLINVTIPSGKVIKVKIKESAGGSAGGSAG [r3_291_JUSTAS] | -0.241 ± 0.11 kcal/mol | 0.911 ± 0.086 kcal/mol | 1.43 ± 0.077 kcal/mol |
| SAGGSKWRMYEITLELGDKPVKITVYYMDGNYSVAIKFPPGRKVDIPFDGPMSPEDAAKKALEALGSAGGSA [r2_92_TrROS] | 2.34 ± 0.056 kcal/mol | 3.24 ± 0.095 kcal/mol | 3.579 ± 0.026 kcal/mol |
| SAEPITITWPNGMQIPLYKDDDGEIEIKIQMYDPKDGKPVGEQEQRIDPDDNTIEFRFPNGWPFSITIPDSA [r9_56_TrROS] | 0.835 ± 0.11 kcal/mol | 0.473 ± 0.22 kcal/mol | 0.0536 ± 0.57 kcal/mol |
| SMDPGDPILITIKIPPVPVYRYKRDPDGNPKGYEPVPMPSQELVIIIPANDLEKLLDLLQPFGLDVEIIPSA [r9_167_TrROS] | 1.58 ± 0.071 kcal/mol | 2.08 ± 0.13 kcal/mol | 2.44 ± 0.083 kcal/mol |
| SAGSMHLVEFTGTEEVVDEFLASLPPEVVVERERYPDRWLVRLPPDVPARTITVPTPDGRPVTFTLRLESAG [r5_123_JUSTAS] | -0.851 ± 0.41 kcal/mol | -0.487 ± 0.21 kcal/mol | -0.346 ± 0.31 kcal/mol |
| SAGGSAGGSAGGQTIVIDSRLLRTALENGDLEKLKALVEEAGYNPENAKIYLITPEELKESAGGSAGGSAGG [r7_3_TrMRF] | -0.133 ± 0.1 kcal/mol | 0.464 ± 0.055 kcal/mol | 0.741 ± 0.11 kcal/mol |
| SAGGSAGGSAGGLKDALENGYVMIDFEIYNPPNGEPIGEITIMVKVPKPEPDEDGNWQLVSAGGSAGGSAGG [r7_959_TrROS] | 1.34 ± 0.086 kcal/mol | 1.26 ± 0.16 kcal/mol | 0.941 ± 0.06 kcal/mol |
| SAGPEREVEVETLVIEAEDGKERLVLRLVRVDGRLYLEVRRYRDGKWEEVARFEAPEEITLSPELLKALSAG [r5_490_TrROS_Hall] | 4.09 ± 0.091 kcal/mol | 4.16 ± 0.078 kcal/mol | 4.219 ± 0.039 kcal/mol |
| SAGGSAKEALVKAVEELFKKLFPDEPIEVLKVDPEKGRITIKVNSDEARKALEKALKELGIEVDLDSAGGSA [r15_196_TrMRF] | 3.75 ± 0.11 kcal/mol | 3.34 ± 0.11 kcal/mol | 2.91 ± 0.092 kcal/mol |
